According to US20150259384A1:
pKd: −log10 of the molar value.

Legend:
[1] = target: Human Rb construct (residues 53-787, delta245-267, delta582-642, S780A), un-phosphorylated (human) (UniProt P06400); assay: isothermal titration calorimetry; E2F (~1 mM) titrated into ~50 uM un-phosphorylated Rb
[2] = target: Human Rb construct (residues 53-787, delta245-267, delta582-642, S780A), phosphorylated with recombinant Cdk (human) (UniProt P06400); assay: isothermal titration calorimetry; E2F (~1 mM) titrated into ~50 uM phosphorylated Rb
[3] = target: Phosphorylated human Rb construct (residues 53-787, delta245-267, delta582-642, S780A) saturated with the … peptide (human) (UniProt P06400); assay: isothermal titration calorimetry; E2F (~1 mM) titrated into ~50 uM phosphorylated Rb first saturated with the … peptide
Chain of Phosphorylated human Rb construct (residues 53-787, delta245-267, delta582-642, S780A) saturated with the … peptide (human) (P06400 other isoform, or with tags, fused parts or gaps S780A S780A limits assumed): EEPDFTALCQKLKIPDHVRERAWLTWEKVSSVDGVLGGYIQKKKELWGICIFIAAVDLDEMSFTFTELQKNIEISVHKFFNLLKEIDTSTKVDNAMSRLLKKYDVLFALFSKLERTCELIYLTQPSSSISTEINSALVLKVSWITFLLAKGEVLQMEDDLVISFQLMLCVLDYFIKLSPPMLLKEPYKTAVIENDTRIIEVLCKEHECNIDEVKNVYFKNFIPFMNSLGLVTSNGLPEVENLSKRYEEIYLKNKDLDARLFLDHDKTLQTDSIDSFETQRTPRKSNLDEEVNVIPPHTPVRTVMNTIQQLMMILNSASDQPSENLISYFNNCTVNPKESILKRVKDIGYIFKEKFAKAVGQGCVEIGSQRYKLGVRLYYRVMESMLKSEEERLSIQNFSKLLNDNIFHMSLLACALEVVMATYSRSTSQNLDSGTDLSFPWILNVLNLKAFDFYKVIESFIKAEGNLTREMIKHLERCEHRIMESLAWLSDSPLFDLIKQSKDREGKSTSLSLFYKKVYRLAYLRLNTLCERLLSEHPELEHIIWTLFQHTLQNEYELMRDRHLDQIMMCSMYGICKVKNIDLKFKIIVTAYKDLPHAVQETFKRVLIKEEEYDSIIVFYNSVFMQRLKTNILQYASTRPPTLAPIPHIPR

Chain of Human Rb construct (residues 53-787, delta245-267, delta582-642, S780A), phosphorylated with recombinant Cdk (human) (P06400 other isoform, or with tags, fused parts or gaps S780A S780A limits assumed): as above
Chain of Human Rb construct (residues 53-787, delta245-267, delta582-642, S780A), un-phosphorylated (human) (P06400 other isoform, or with tags, fused parts or gaps S780A S780A limits assumed): as above

Substance: Human E2F1 transactivation domain (residues 380-727) (from UniProt Q01094 380-437)
- pKd [1]: 7.00
- pKd [2]: 5.52
- pKd [3]: 6.15
